According to the RNAGym collection of RNA variant scans (doi:10.7554/elife.80360):

B1: HDV Ribozyme (parent)
chain: GGCCGGCAUGGUCCCAGCCUCCUCGCUGGCGCCGGCUGGGCAACAUUCCGAGGGGACCGUCCCCUCGGUAAUGGCGAAUGGGACCCA

Variants of: B1
Test: self-cleavage, relative activity (ratio to wild type); higher = more cleavage; co-transcriptional

Compared with G53A A78C, G53A G82A is higher in self-cleavage: 0.104 for the first, 0.466 for the second.

Going from G53C C57U to G53C C57G, the self-cleavage rises from 0.969 to 1.14.

Going from G53A G54A to G52A U60C, the self-cleavage rises from 0.896 to 1.08.

Compared with G52U A78G, G54A A56G is higher in self-cleavage: 0.514 for the first, 0.991 for the second.

Compared with G53A G73U, G53A G73A is higher in self-cleavage: 0.304 for the first, 0.44 for the second.

Going from G53A G73C to G54A A87U, the self-cleavage rises from 0.265 to 0.922.

First: G53A G59A
Second: G53A A71C
The self-cleavage of the first is higher: 0.851 for the first, 0.623 for the second.

First: G52U A56G
Second: G52U A56U
The self-cleavage of the first is higher: 0.816 for the first, 0.787 for the second.

Going from G53A G68U to G53A G68C, the self-cleavage falls from 0.807 to 0.604.

Going from G53A G68A to G53A C62G, the self-cleavage falls from 0.743 to 0.511.

First: G53A C62A
Second: G52A U79G
The self-cleavage of the first is higher: 1.05 for the first, 0.718 for the second.

Compared with G52A U79A, G53U G81C is lower in self-cleavage: 0.95 for the first, 0.385 for the second.

Compared with G52C C62A, G52U C85A is lower in self-cleavage: 0.878 for the first, 0.784 for the second.

Compared with G53U C75U, G52U G81A is higher in self-cleavage: 0.277 for the first, 0.356 for the second.

First: G53U C64U
Second: G53A G67C
The self-cleavage of the first is lower: 0.853 for the first, 1.04 for the second.

First: G53A G67A
Second: G53U U60G
The self-cleavage of the first is higher: 1.02 for the first, 0.972 for the second.

Compared with G52U G53A, G53U A71C is lower in self-cleavage: 0.849 for the first, 0.538 for the second.

Compared with G53C A71U, G53A G74A is lower in self-cleavage: 1.1 for the first, 0.554 for the second.

First: G53A U79A
Second: G54A C64G
The self-cleavage of the first is higher: 0.814 for the first, 0.657 for the second.

Compared with G54A G81U, G53A C75A is lower in self-cleavage: 0.229 for the first, 0.225 for the second.

Going from G53A C75U to G52U G74A, the self-cleavage rises from 0.256 to 0.402.

First: G52U G74U
Second: G53U C85A
The self-cleavage of the first is lower: 0.629 for the first, 0.931 for the second.

Compared with G53U C86A, G53U G82A is lower in self-cleavage: 1.07 for the first, 0.496 for the second.

Compared with G52U C64U, G52U C64G is higher in self-cleavage: 0.881 for the first, 0.902 for the second.

Compared with G53A A56G, G53A A56C is lower in self-cleavage: 0.875 for the first, 0.787 for the second.

Compared with G52U A77C, G53U A83C is higher in self-cleavage: 0.54 for the first, 0.6 for the second.

First: G53U A83G
Second: G52U G68A
The self-cleavage of the first is higher: 0.739 for the first, 0.517 for the second.

Compared with G52C C86U, G52C C86A is lower in self-cleavage: 1.2 for the first, 0.997 for the second.

Compared with G53U C63A, G53C C61A is lower in self-cleavage: 1.2 for the first, 1.04 for the second.

First: G52C C84A
Second: G52U C86G
The self-cleavage of the first is lower: 0.791 for the first, 1.01 for the second.

First: G52U C63G
Second: G52U U65G
The self-cleavage of the first is lower: 0.277 for the first, 0.767 for the second.

First: G53C A78C
Second: G52C G80C
The self-cleavage of the first is lower: 0.0678 for the first, 0.326 for the second.

First: G52U A87C
Second: G53C C84G
The self-cleavage of the first is higher: 0.95 for the first, 0.696 for the second.

First: G53C C84A
Second: G54A A71G
The self-cleavage of the first is lower: 0.76 for the first, 0.959 for the second.

Compared with G54A A71C, G52C U65A is higher in self-cleavage: 0.753 for the first, 0.939 for the second.

First: G52C U65C
Second: G54A G67A
The self-cleavage of the first is higher: 1.18 for the first, 0.698 for the second.

Compared with G52C A70U, G54A A70G is higher in self-cleavage: 0.782 for the first, 0.79 for the second.

Going from G54A A78C to G54A A78G, the self-cleavage rises from 0.247 to 0.332.

Compared with G52U C58A, G52U C58G is higher in self-cleavage: 0.888 for the first, 0.95 for the second.

Compared with G54A, G52U A70G is lower in self-cleavage: 0.961 for the first, 0.878 for the second.

Going from G53A C85A to G54A C61A, the self-cleavage rises from 0.933 to 1.07.

First: G53U U65A
Second: G53A C84A
The self-cleavage of the first is lower: 0.69 for the first, 0.888 for the second.

Compared with G52C G68A, G52C G68C is lower in self-cleavage: 0.564 for the first, 0.369 for the second.

First: G53A U72A
Second: G52C G73A
The self-cleavage of the first is higher: 0.642 for the first, 0.627 for the second.

Going from G52U U79G to G52U U79C, the self-cleavage rises from 0.521 to 0.59.

First: G53C A77U
Second: G53C U60C
The self-cleavage of the first is lower: 0.639 for the first, 1 for the second.

First: G52U C61G
Second: G53A G80A
The self-cleavage of the first is higher: 0.927 for the first, 0.218 for the second.

Compared with G52C C61U, G53A G81C is lower in self-cleavage: 0.963 for the first, 0.266 for the second.

Going from G52C G81A to G53C A56G, the self-cleavage rises from 0.563 to 0.962.

First: G52U C62A
Second: G52U C62G
The self-cleavage of the first is higher: 0.822 for the first, 0.106 for the second.

Compared with G52C C58G, G53U A56C is lower in self-cleavage: 1.13 for the first, 0.831 for the second.

First: G52U G76A
Second: G52C G54C
The self-cleavage of the first is higher: 0.936 for the first, 0.564 for the second.

Compared with G52U G59A, G52U G59U is higher in self-cleavage: 0.982 for the first, 0.984 for the second.

Going from G53A C66U to G53A C66G, the self-cleavage falls from 1.05 to 0.908.

Going from G53C A87G to G53C U79C, the self-cleavage falls from 0.971 to 0.47.

Compared with G54A G82U, G53C C63U is higher in self-cleavage: 0.205 for the first, 0.997 for the second.

First: G53U G67U
Second: G53U C84U
The self-cleavage of the first is lower: 0.715 for the first, 0.821 for the second.

Going from G53A U65A to G54A U65C, the self-cleavage falls from 0.884 to 0.696.

Going from G53C C58G to G52U A83U, the self-cleavage falls from 1 to 0.494.

Going from G52U A83C to G53C C64A, the self-cleavage rises from 0.259 to 0.724.

First: G53C C64U
Second: G54A G55C
The self-cleavage of the first is lower: 0.703 for the first, 1.04 for the second.

Going from G53U G68U to G53U G76U, the self-cleavage rises from 0.703 to 0.939.

Compared with G53C C85U, G52C C85U is higher in self-cleavage: 0.808 for the first, 1.09 for the second.

First: G52U G54A
Second: G52U G54U
The self-cleavage of the first is lower: 0.653 for the first, 0.784 for the second.

Going from G54A U79C to G52C G53U, the self-cleavage rises from 0.411 to 0.782.

Compared with G52U C75U, G53A A70U is higher in self-cleavage: 0.115 for the first, 1.02 for the second.

First: G53A A70C
Second: G52U A71C
The self-cleavage of the first is higher: 1.06 for the first, 0.745 for the second.

Compared with G53A A87U, G53A A87C is higher in self-cleavage: 0.992 for the first, 1.1 for the second.

Compared with G53C G80U, G53C G80C is lower in self-cleavage: 0.293 for the first, 0.0755 for the second.

First: G53C G80A
Second: G53A C64G
The self-cleavage of the first is lower: 0.307 for the first, 0.769 for the second.

Compared with G52C C66A, G52U G82C is lower in self-cleavage: 1.03 for the first, 0.194 for the second.

First: G52C A87G
Second: G53C G76U
The self-cleavage of the first is higher: 0.985 for the first, 0.967 for the second.

Going from G52C G67C to G52U C57A, the self-cleavage rises from 0.446 to 0.903.

Going from G53A G76C to G53U G55U, the self-cleavage falls from 1.08 to 0.915.

First: G53C A83G
Second: G53C A83U
The self-cleavage of the first is higher: 0.815 for the first, 0.332 for the second.

Going from G52A U69G to G54A U60C, the self-cleavage rises from 0.955 to 1.06.

First: G54A U60A
Second: G53C C86U
The self-cleavage of the first is lower: 0.758 for the first, 0.799 for the second.

Going from G52U G55C to G52C U72C, the self-cleavage falls from 0.961 to 0.332.

Compared with G54A U69A, G54A U69C is lower in self-cleavage: 0.982 for the first, 0.95 for the second.

First: G52U G67C
Second: G53C G68A
The self-cleavage of the first is lower: 0.295 for the first, 0.577 for the second.

Compared with G53C G68U, G52A G82C is lower in self-cleavage: 0.475 for the first, 0.362 for the second.

First: G53C G54A
Second: G53U A70C
The self-cleavage of the first is higher: 1.08 for the first, 0.774 for the second.

Compared with G52C C75U, G52C U69C is higher in self-cleavage: 0.134 for the first, 0.943 for the second.

G54A G76C showed a self-cleavage of 1.04.
